{
  "source": "paper PMC7076691",
  "origin": "cited, not measured here",
  "molecular_target": "Bfd (Pseudomonas aeruginosa) (UniProt Q9HY80)",
  "sequence (Q9HY80 whole entry)": "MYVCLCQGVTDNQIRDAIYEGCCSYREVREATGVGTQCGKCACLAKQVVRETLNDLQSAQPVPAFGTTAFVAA",
  "data": [
    {"substance": "BfrB (from UniProt Q9HY79)", "values": [
      {"measurement": "Kd", "result": 3000, "unit": "nM"}
    ]}
  ]
}
